Source: patent US10538591B2, “Anti-fibulin-3 antibodies and uses thereof” (THE BRIGHAM AND WOMEN'S HOSPITAL, INC., priority 2014, dated 2020)
Several values for one entry are separate records, joined by “and”; a condition that tells them apart may be missing. Equal values may be shown once.

Experiments:
[1] = tested on: GBM34 glioblastoma stem cells; experiment: BrdU uptake in tumors after intravenous treatment; type: in vivo, mice; conditions: 8×30 mg/kg IV, BrdU 1 h before euthanasia
Procedure: Control and tumor mice studied in FIG. 11 for overall survival (treated with antibody 8×30 mg/kg, IV) were injected with 5-bromo-2′-deoxyuridine (BrdU, 50 mg/kg, IP) 1 h before euthanasia. BrdU staining of actively dividing cells. Tumors from 3 mice per group were processed for immunohistochemistry to detect BrdU uptake, corresponding to actively dividing cells. Tissue sections were imaged by fluorescence microscopy and quantified blindly using ImageJ image analysis software. DAPI was used to stain cell nuclei. Results were expressed as number of BrdU-positive cells per unit of tumor area. […] (Data not shown).

[2] = Acute toxicity, single IV injection dose-escalation; type: in vivo, athymic mice; parameters: Endpoint weight / Endpoint weight Average: unit not given here; Pre-inject weight / Pre-inject weight Average: unit: g; conditions: for Endpoint weight Average / Pre-inject weight Average: group average; for Endpoint weight / Pre-inject weight: individual mouse
Procedure: Table 2 summarizes the results of acute toxicity assays for mAb428.2 injected intravenously (IV) into mice. A dose-escalation study was performed with athymic mice that received a single IV injection of mAb428.2 (purified in low-endotoxin conditions). Doses ranged from 0.1 to 30 mg/kg and mice were observed (and weighed) for periods ranging from 15 minutes to 14 days after injection. Mice were perfused with 4% paraformaldehyde and several organs were recovered, processed for histochemistry and analyzed by a specialist in rodent histopathology. Note that recovered organs and tissues for FFPE+H&E processing were: cerebrum, cerebellum, eyes, liver, kidney, skin, forepaws (to assess connective tissue). This study was performed independently at the Beth Israel Deaconess Medical Center Preclinical Murine Pharmacogenomics Core and tissues were evaluated at the Dana-Farber/Harvard Cancer Center Rodent Histopathology Core.

Normal human astrocytes = experiment: Viability of normal human astrocytes; type: cell-based; conditions: mAb428.2, conditions not given
Procedure: Normal human astrocytes and glioma cell lines (U251MG, U87MG and CNS1) were cultured as adherent cells in 96-well plates (10,000 cells/well). Three primary cultures of glioma-initiating cells (GBM8, GBM9 and GBM34) were cultured in suspension using appropriate medium in 96-well plates (25,000 cells/well). All cells were exposed to anti-Fib3/911 (50 μg/mL) or its pre-immune serum for 72 h, followed by measurement of cell viability as indicated in FIG. 5. […] In contrast, normal astrocytes were not affected by the antibody (** p<0.01; *** p<0.001, one-way ANOVA for each cell line)
Antibodies against fibulin-3 induce cytotoxicity in a wide range of glioma cells but not in normal cells. […] This antibody was added to cultures of different glioma cell lines (U251MG, U87MG, CNS1) as well as cultures of glioma initiating cells that produce large amounts of fibulin-3 (GBM8, GBM9, GBM34). […] Vehicle control (PBS) and the pre-immune serum of anti-fibulin-3/91I were tested as controls. Cell viability was measured after 72 hours. […] Neither the vehicle nor the pre-immune serum affected cell viability (FIG. 7).

fibulin-4 = target: T1, fibulin-4 (Homo sapiens, UniProt O95967); experiment: Cross-reactivity against homologous fibulin-4; type: binding
T1 sequence (O95967 24-443): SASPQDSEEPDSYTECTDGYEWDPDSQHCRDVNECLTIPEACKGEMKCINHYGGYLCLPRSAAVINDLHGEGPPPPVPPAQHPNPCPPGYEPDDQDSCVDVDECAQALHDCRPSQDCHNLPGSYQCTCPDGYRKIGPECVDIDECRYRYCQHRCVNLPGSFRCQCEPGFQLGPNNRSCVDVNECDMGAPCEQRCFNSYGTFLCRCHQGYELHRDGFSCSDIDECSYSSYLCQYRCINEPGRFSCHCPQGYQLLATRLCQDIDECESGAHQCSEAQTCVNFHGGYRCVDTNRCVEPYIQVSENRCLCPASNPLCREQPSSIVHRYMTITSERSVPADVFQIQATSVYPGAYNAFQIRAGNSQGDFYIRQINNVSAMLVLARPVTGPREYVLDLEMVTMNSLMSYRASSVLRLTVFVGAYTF

[3] = tested on: Notch signaling induced by fibulin-3; experiment: Notch reporter in ARPE19 retinal pigmented epithelial cells; type: cell-based, human; conditions: 100 μg/ml, 0, 2, 4, 6 and 24 h
Procedure: Cells were co-transfected with plasmids carrying fibulin-3 cDNA (Fib3 OE) or a control cDNA (Control) and incubated in serum-free conditions for 24 h (FIG. 18). The following day mAb428.3C11 (100 μg/ml) was added to the cultures and Notch (left panel) or NF-kB (right panel) signaling activities were measured after 0, 2, 4, 6, and 24 h. […] The inhibitory effect caused by the antibody on control reporter signaling (black dots) may have been caused by blocking of endogenous fibulin-3 that is highly expressed by ARPE19 cells.

[4] = 0.1 mg/kg IV, 15 min after injection
[5] = 0.1 mg/kg IV, 24 h after injection
[6] = 0.1 mg/kg IV, 4 days after injection
[7] = 0.1 mg/kg IV, 14 days after injection
[8] = 1 mg/kg IV, 15 min after injection
[9] = 1 mg/kg IV, 24 h after injection
[10] = 1 mg/kg IV, 4 days after injection
[11] = 1 mg/kg IV, 14 days after injection
[12] = 10 mg/kg IV, 15 min after injection
[13] = 10 mg/kg IV, 24 h after injection
[14] = 10 mg/kg IV, 4 days after injection
[15] = 10 mg/kg IV, 14 days after injection
[16] = 30 mg/kg IV, 24 h after injection
[17] = 30 mg/kg IV, 4 days after injection
[18] = 30 mg/kg IV, 14 days after injection
[19] = single IV injection 0.1 to 30 mg/kg, 15 minutes to 14 days

B1: mAb428.2: mouse monoclonal IgG1 kappa antibody against human fibulin-3 peptide SEQ ID NO:2; VH SEQ ID NO: 3, VL SEQ ID NO: 4 (antibody, V domains shown)
VH: QIQLVQSGPELKKPGETVKISCKASGYSFTTYGMSWVKQAPGKGLKWMGWINTYSGVPTYADDFKGRFAFFLETSASTAYLQINNLKNEDTATYFCARWVDYWGQGTTLTVSS
VL: DIKMTQSPSSMYASLGERVTITCKASQDIKSYLSWHQQKPWKSPKTLIYYATSLADGVPSRFSGSGSGQDYSLTISSLESDDTATYYCLQHGKSPYTFGGGTKLEIK
- tumor cell division (BrdU-positive cells per unit of tumor area) [1]: significant decrease in tumor cell division
- Endpoint weight Average [2, 4]: 24.27
- Endpoint weight [2, 4]: 24.80 and 25.60 and 22.40
- Endpoint weight Average [2, 5]: 25.27
- Endpoint weight [2, 5]: 25.40 and 26.50 and 23.90
- Endpoint weight Average [2, 6]: 24.53
- Endpoint weight [2, 6]: 25.20 and 24.00 and 24.40
- Endpoint weight Average [2, 7]: 23.93
- Endpoint weight [2, 7]: 25.20 and 24.90 and 21.70
- Pre-inject weight Average ([2]; 0.1 mg/kg IV, endpoint 15 min): 23.95
- Pre-inject weight ([2]; 0.1 mg/kg IV, endpoint 15 min, measured the day before injection): 21.60 and 26.30 and 19.7 (*)
- Pre-inject weight Average ([2]; 0.1 mg/kg IV, endpoint 24 h): 24.93
- Pre-inject weight ([2]; 0.1 mg/kg IV, endpoint 24 h): 25.10 and 26.30 and 23.40
- Pre-inject weight Average ([2]; 0.1 mg/kg IV, endpoint 4 days): 24.93
- Pre-inject weight ([2]; 0.1 mg/kg IV, endpoint 4 days): 25.10 and 24.80 and 24.90
- Pre-inject weight Average ([2]; 0.1 mg/kg IV, endpoint 14 days): 22.40
- Pre-inject weight ([2]; 0.1 mg/kg IV, endpoint 14 days): 24.10 and 24.70 and 18.40
- Endpoint weight Average [2, 8]: 24.40
- Endpoint weight [2, 8]: 25.20 and 24.00 (2×)
- Endpoint weight Average [2, 9]: 26.30
- Endpoint weight [2, 9]: 25.80 and 26.30 and 26.80
- Endpoint weight Average [2, 10]: 23.93
- Endpoint weight [2, 10]: 25.00 and 22.80 and 24.00
- Endpoint weight Average [2, 11]: 24.37
- Endpoint weight [2, 11]: 24.60 and 24.00 and 24.50
- Pre-inject weight Average ([2]; 1 mg/kg IV, endpoint 15 min): 24.77
- Pre-inject weight ([2]; 1 mg/kg IV, endpoint 15 min, measured the day before injection): 25.30 and 24.60 and 24.40
- Pre-inject weight Average ([2]; 1 mg/kg IV, endpoint 24 h): 26.13
- Pre-inject weight ([2]; 1 mg/kg IV, endpoint 24 h): 25.80 and 25.90 and 26.70
- Pre-inject weight Average ([2]; 1 mg/kg IV, endpoint 4 days): 24.23
- Pre-inject weight ([2]; 1 mg/kg IV, endpoint 4 days): 25.30 and 22.80 and 24.60
- Pre-inject weight Average ([2]; 1 mg/kg IV, endpoint 14 days): 24.30
- Pre-inject weight ([2]; 1 mg/kg IV, endpoint 14 days): 24.60 and 23.80 and 24.50
- Endpoint weight Average [2, 12]: 23.60
- Endpoint weight [2, 12]: 23.50 and 22.90 and 24.40
- Endpoint weight Average [2, 13]: 26.47
- Endpoint weight [2, 13]: 26.30 and 25.60 and 27.50
- Endpoint weight Average [2, 14]: 24.00
- Endpoint weight [2, 14]: 24.70 and 23.60 and 23.70
- Endpoint weight Average [2, 15]: 25.30
- Endpoint weight [2, 15]: 25.10 and 24.80 and 26.00
- Pre-inject weight Average ([2]; 10 mg/kg IV, endpoint 15 min): 23.60
- Pre-inject weight ([2]; 10 mg/kg IV, endpoint 15 min, measured the day before injection): 23.60 and 23.20 and 24.00
- Pre-inject weight Average ([2]; 10 mg/kg IV, endpoint 24 h): 26.00
- Pre-inject weight ([2]; 10 mg/kg IV, endpoint 24 h): 26.20 and 25.00 and 26.80
- Pre-inject weight Average ([2]; 10 mg/kg IV, endpoint 4 days): 24.03
- Pre-inject weight ([2]; 10 mg/kg IV, endpoint 4 days): 24.70 and 24.00 and 23.40
- Pre-inject weight Average ([2]; 10 mg/kg IV, endpoint 14 days): 24.90
- Pre-inject weight ([2]; 10 mg/kg IV, endpoint 14 days): 24.60 and 24.40 and 25.70
- Endpoint weight Average [2, 16]: 26.40
- Endpoint weight [2, 16]: 27.40 and 26.30 and 25.50
- Endpoint weight Average [2, 17]: 24.70
- Endpoint weight [2, 17]: 25.20 and 26.30 and 22.60
- Endpoint weight Average [2, 18]: 23.70
- Endpoint weight [2, 18]: 25.50 and 23.70 and 21.90
- Pre-inject weight Average ([2]; 30 mg/kg IV, endpoint 24 h): 26.20
- Pre-inject weight ([2]; 30 mg/kg IV, endpoint 24 h): 27.40 and 26.10 and 25.10
- Pre-inject weight Average ([2]; 30 mg/kg IV, endpoint 4 days): 23.73
- Pre-inject weight ([2]; 30 mg/kg IV, endpoint 4 days): 24.00 and 25.30 and 21.90
- Pre-inject weight Average ([2]; 30 mg/kg IV, endpoint 14 days): 22.90
- Pre-inject weight ([2]; 30 mg/kg IV, endpoint 14 days): 24.20 and 23.20 and 21.30
- maximum tolerated dose before causing toxicity (MTD) ([2]; single IV injection): > 30 mg/kg
- histopathology in tissues stained by H&E ([2]; single IV injection 0.1 to 30 mg/kg): no evidence of histopathology
- adverse effects [2, 19]: no adverse effects after injection
- weight loss [2, 19]: no weight loss
- effect on normal astrocytes (Normal human astrocytes): without effects on normal astrocytes
- cross-reactivity against fibulin-4 (fibulin-4): no cross-reactivity
- effect on fibulin-3-induced Notch reporter activity [3]: strong blocking effect
